Data taken from patent publication US20220153831A1 (HEDGEHOG, published 2022).

B1: AB9 (antibody, V domains shown)
VH: EVQLVESGAEVRKPGASVKVSCKASGYTFTSSDINWIRQATGQGLEWMGYMNPKNGNTDYAQKFQGRISMTRDSSISTAYMELSSLRSEDTAVYYCAKDRYGSGTYGEGMDVWGPGTLVT
VL: DIVMTQSPSAMSASVGDRVSITCRASQGINNYLAWFQQKPGKVPKRLMDVGSILQSGIPSRFRGRGSGTQFTLTISSLQAEDSGTYFCLQHNTYPLTFGPGTKVEIKR
notes: also called lead antibody
B2: GG12 (antibody, V domains shown)
VH: EVQLVESGAEVRKPGASVKVSCKASGYTFTSSDINWIRQATGQGLEWMGYMNPKNGNTDYAQKFQGRISMTRDSSISTAYMELSSLRSEDTAVYYCAKDRYGSGVYGFGMDVWGPGTLVT
VL: DIVMTQSPSAMSASVGDRVSITCRASQGINNYLAWFQQKPGKVPKRLMDVGSILQSGIPSRFRGRGSGTQFTLTISSLQAEDSGTYFCLQHNTYPLTFGPGTKVEIKR
notes: also called lead antibody
B3: FG12 (antibody, V domains shown)
VH: EVQLVESGAEVRKPGASVKVSCKASGYTFTSSDINWIRQATGQGLEWMGYMNPKNGNTDYAQKFQGRISMTRDSSISTAYMELSSLRSEDTAVYYCAKDRYGLGTYGFGMDVWGPGTLVT
VL: DIVMTQSPSAMSASVGDRVSITCRASQGINNYLAWFQQKPGKVPKRLMDVGSILQSGIPSRFRGRGSGTQFTLTISSLQAEDSGTYFCLQHNTYPLTFGPGTKVEIKR
notes: also called lead antibody
B4: EF12 (antibody, V domains shown)
VH: EVQLVESGAEVRKPGASVKVSCKASGYTFTSSDINWIRQATGQGLEWMGYMNPKNGNTDYAQKFQGRISMTRDSSISTAYMELSSLRSEDTAVYYCAKDPYGSGTYGFGMDVWGPGTLVT
VL: DIVMTQSPSAMSASVGDRVSITCRASQGINNYLAWFQQKPGKVPKRLMDVGSILQSGIPSRFRGRGSGTQFTLTISSLQAEDSGTYFCLQHNTYPLTFGPGTKVEIKR
notes: also called lead antibody

biological target: T1, active human ETA (purified) (human, UniProt P25101 21-427); assay: ELISA on purified active ETA
T1 construct: also called human endothelin receptor type A
T1 sequence: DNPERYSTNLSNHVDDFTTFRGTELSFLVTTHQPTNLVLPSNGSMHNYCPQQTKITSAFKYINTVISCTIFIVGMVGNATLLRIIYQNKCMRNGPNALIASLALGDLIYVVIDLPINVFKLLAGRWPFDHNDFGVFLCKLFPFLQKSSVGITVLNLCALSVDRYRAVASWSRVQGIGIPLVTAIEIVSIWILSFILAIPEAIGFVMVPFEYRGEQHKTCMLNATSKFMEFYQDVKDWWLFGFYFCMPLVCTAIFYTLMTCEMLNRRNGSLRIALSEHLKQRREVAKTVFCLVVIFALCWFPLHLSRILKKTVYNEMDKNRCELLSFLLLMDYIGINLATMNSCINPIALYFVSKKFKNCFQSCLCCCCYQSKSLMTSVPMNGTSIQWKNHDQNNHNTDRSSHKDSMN
Method: The cross-binding activities of the developed antibodies to human ETA and mouse ETA were tested by ELISA.

Binding result, binds:
B1, B2, B3, B4
